# Literature values in PMC4245983.
# Like-named read-outs stand apart in the source and are kept apart here.
# Assays:
# IscU (Escherichia coli) [1] = biological target: IscU (Escherichia coli) (UniProt P0ACD4); details: cited from earlier work
# IscU (Escherichia coli) [2] = biological target: IscU (Escherichia coli) (UniProt P0ACD4); details: cited from earlier work; remark: listed apart in the source
# Sequence of IscU (Escherichia coli) (P0ACD4 whole entry): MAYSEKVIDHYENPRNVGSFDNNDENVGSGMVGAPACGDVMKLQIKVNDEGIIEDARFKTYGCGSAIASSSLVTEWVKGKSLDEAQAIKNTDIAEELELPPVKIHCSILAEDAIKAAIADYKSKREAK
# Sequence of HscA (P0A6Z1 whole entry): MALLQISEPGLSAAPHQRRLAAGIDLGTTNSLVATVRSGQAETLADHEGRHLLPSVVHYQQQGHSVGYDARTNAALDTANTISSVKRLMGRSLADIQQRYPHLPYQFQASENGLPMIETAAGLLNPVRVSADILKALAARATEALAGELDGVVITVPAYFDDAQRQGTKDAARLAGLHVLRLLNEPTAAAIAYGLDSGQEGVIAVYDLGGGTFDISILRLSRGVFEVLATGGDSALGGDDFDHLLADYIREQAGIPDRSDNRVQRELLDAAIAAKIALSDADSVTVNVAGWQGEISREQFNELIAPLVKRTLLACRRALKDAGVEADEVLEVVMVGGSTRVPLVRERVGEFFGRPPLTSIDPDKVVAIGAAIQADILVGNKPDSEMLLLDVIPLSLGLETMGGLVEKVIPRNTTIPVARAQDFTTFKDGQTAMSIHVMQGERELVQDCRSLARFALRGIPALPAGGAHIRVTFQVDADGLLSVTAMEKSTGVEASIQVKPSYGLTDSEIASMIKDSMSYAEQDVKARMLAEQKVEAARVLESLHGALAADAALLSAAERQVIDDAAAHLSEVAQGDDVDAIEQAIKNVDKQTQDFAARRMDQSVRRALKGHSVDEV
substance,measurement,setting,value
HscA (from UniProt P0A6Z1),Kd,IscU (Escherichia coli) [1],1.6 µM
same,Kd,IscU (Escherichia coli) [2],37 µM
